Experimental data published in the supplement of paper PMC10724198.
± gives the standard deviation of the averaged measurements.

Test system: Saccharomyces cerevisiae
Assay: protein stability index of tFT-peptide fusion (C-terminal peptide) (PSI (0-1 scale)); higher = more stable (slower turnover)
Details: genetic background: wild type; temperature: 30 C
Experimental: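 Multiplexed protein stability (MPS) profiling in S. cerevisiae. Random 12-aa peptides (tFT-X12 library) are fused to the C-terminus of a sfGFP-mCherry tandem fluorescent timer, after mCherry and a GGGS linker. Cells are FACS-sorted into 8 mCherry/sfGFP bins and deep-sequenced. The protein stability index (PSI) is the read-weighted bin average, scaled from 0 (unstable) to 1 (stable). Only peptides with >10 reads are reported; cells were grown at 30 °C in SC-His with glucose.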
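Note: PSI is a weighted mean of sequencing reads over stability bins, variants kept only with over 10 reads, mCherry proximal and sfGFP distal, peptide attached via GGGS linker.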

For SIRPVRLSWVRL, which protein stability index is on record?
Its protein stability index is 0.632 ± 0.0066.

For SISGTSKDSASC, which protein stability index is on record?
The protein stability index was 0.6677 ± 0.0028.

With FNINRCLEGAHK as the sequence, how does the protein stability index read?
The protein stability index was 0.717 ± 0.035.

How did the protein stability index turn out when TAPRERFGKDPR was run?
Its protein stability index is 0.649 ± 0.056.

For RRFQYLTENYQK, which protein stability index is on record?
The protein stability index was 0.6208 ± 0.0047.

For ATMGRKSLRDRF, which protein stability index is on record?
Its protein stability index is 0.679 ± 0.012.

RNFAPPFLPSPH was tested. Which protein stability index did it give?
Its protein stability index is 0.711 ± 0.066.

LLTTGGRWWRRP was tested. Which protein stability index did it give?
Its protein stability index is 0.669 ± 0.03.

DFYSLAWHFWFL was tested. Which protein stability index did it give?
Its protein stability index is 0.69 ± 0.073.

Which protein stability index does the source give for YIVPAGGGLVSG here?
The protein stability index was 0.642 ± 0.096.

GLWEVVEITRRE was tested. Which protein stability index did it give?
Its protein stability index is 0.684 ± 0.049.

How did the protein stability index turn out when GGGRRWPGGSGG was run?
The protein stability index was 0.775 ± 0.075.

How did the protein stability index turn out when YKMTFVRGQGYE was run?
Its protein stability index is 0.69 ± 0.041.

Which protein stability index does the source give for PFFHFLGFSYFC here?
The protein stability index was 0.684 ± 0.024.

For GPPDLSSSRVLL, which protein stability index is on record?
Its protein stability index is 0.718 ± 0.11.

How did the protein stability index turn out when PPPPPPPLPHPP was run?
The protein stability index was 0.595 ± 0.058.

With VQGEGVVAISMT as the sequence, how does the protein stability index read?
Its protein stability index is 0.712 ± 0.021.

Which protein stability index does the source give for TVKAGESILEQR here?
The protein stability index was 0.716 ± 0.013.

For WDQLPVNMVYQC, which protein stability index is on record?
Its protein stability index is 0.571.

For GGEKEREEEDKE, which protein stability index is on record?
The protein stability index was 0.625 ± 0.056.

Which protein stability index does the source give for SEKIRDQQPTPA here?
Its protein stability index is 0.671 ± 0.044.

How did the protein stability index turn out when NSSPVRSSCLSA was run?
The protein stability index was 0.6881 ± 0.0038.

How did the protein stability index turn out when KKNEKGSKGAEY was run?
Its protein stability index is 0.66 ± 0.03.

For GGPLDASICRSS, which protein stability index is on record?
Its protein stability index is 0.694 ± 0.061.

WVNWRWRAVVPG was tested. Which protein stability index did it give?
The protein stability index was 0.6188 ± 0.0025.

Which protein stability index does the source give for WWAGGCGGERGG here?
Its protein stability index is 0.686 ± 0.018.

For WGGSSPHRTEPR, which protein stability index is on record?
Its protein stability index is 0.666 ± 0.058.

Which protein stability index does the source give for DSVGGVLGRGAR here?
Its protein stability index is 0.633 ± 0.022.

With RLCLFPVAPLLS as the sequence, how does the protein stability index read?
Its protein stability index is 0.599 ± 0.03.

Which protein stability index does the source give for DRPSTNPISNVG here?
Its protein stability index is 0.699 ± 0.015.

With PVSSLHFPLPGF as the sequence, how does the protein stability index read?
The protein stability index was 0.677 ± 0.027.

With YFGSHLILSRAT as the sequence, how does the protein stability index read?
The protein stability index was 0.665 ± 0.11.

How did the protein stability index turn out when WGGSGRVWVKLG was run?
The protein stability index was 0.696 ± 0.055.

For RFRVKSYLYFCP, which protein stability index is on record?
Its protein stability index is 0.614 ± 0.03.

For EVVFVARSGSGV, which protein stability index is on record?
Its protein stability index is 0.654 ± 0.008.

How did the protein stability index turn out when VQGGSSCLWSVR was run?
The protein stability index was 0.72 ± 0.01.

KIIKIHLFWGII was tested. Which protein stability index did it give?
Its protein stability index is 0.478 ± 0.041.

How did the protein stability index turn out when LLPYPAEPSPRR was run?
Its protein stability index is 0.713 ± 0.013.

VRVCWGCCGVVF was tested. Which protein stability index did it give?
The protein stability index was 0.51 ± 0.024.

For KKKNTKKKNEQS, which protein stability index is on record?
The protein stability index was 0.725 ± 0.014.

With SLYPRALDFGPM as the sequence, how does the protein stability index read?
The protein stability index was 0.692 ± 0.033.

How did the protein stability index turn out when WLGTIVCGRGWW was run?
The protein stability index was 0.7003 ± 0.006.

ARGRSACGKLIY was tested. Which protein stability index did it give?
The protein stability index was 0.654 ± 0.017.

For HLFVCGNGVSAT, which protein stability index is on record?
The protein stability index was 0.684 ± 0.029.

With SLALSAGFSIYL as the sequence, how does the protein stability index read?
Its protein stability index is 0.6693 ± 0.0062.

With MISIKNEKKKYT as the sequence, how does the protein stability index read?
The protein stability index was 0.685 ± 0.069.

WSRRGGWEKYGV was tested. Which protein stability index did it give?
Its protein stability index is 0.676 ± 0.032.

For PGSPPPPDTLSP, which protein stability index is on record?
Its protein stability index is 0.701 ± 0.034.

With SPLLSSPSPFSL as the sequence, how does the protein stability index read?
Its protein stability index is 0.751 ± 0.095.

Which protein stability index does the source give for SRTNVKVRKTGV here?
The protein stability index was 0.6916 ± 0.0059.

Which protein stability index does the source give for RYENRGRMKRER here?
The protein stability index was 0.676 ± 0.042.

Which protein stability index does the source give for GDRSKECAMKNG here?
Its protein stability index is 0.67 ± 0.013.

With RHGDGGRGRVDG as the sequence, how does the protein stability index read?
Its protein stability index is 0.736 ± 0.1.

How did the protein stability index turn out when SGCRLGCASVVQ was run?
The protein stability index was 0.611 ± 0.044.

With ESGRGGVGVGWG as the sequence, how does the protein stability index read?
Its protein stability index is 0.709 ± 0.096.

For DVFCRPRCFRRG, which protein stability index is on record?
Its protein stability index is 0.686 ± 0.041.

For CVCLGCGGAFAG, which protein stability index is on record?
Its protein stability index is 0.696 ± 0.019.

With IFKNAWSSYRIE as the sequence, how does the protein stability index read?
The protein stability index was 0.714 ± 0.037.

With AFFRLSLPGARA as the sequence, how does the protein stability index read?
Its protein stability index is 0.654 ± 0.011.

For DSSPGSHPPHRG, which protein stability index is on record?
The protein stability index was 0.736 ± 0.053.

With KTTERRQTKSRV as the sequence, how does the protein stability index read?
Its protein stability index is 0.688 ± 0.085.

Which protein stability index does the source give for REVRRNINKRRE here?
The protein stability index was 0.67 ± 0.11.

KRNEQQKNDRKK was tested. Which protein stability index did it give?
Its protein stability index is 0.653 ± 0.046.

With TSTHSFLDFGTG as the sequence, how does the protein stability index read?
The protein stability index was 0.6272 ± 0.0011.

With GGFRSVCGGVNW as the sequence, how does the protein stability index read?
The protein stability index was 0.665 ± 0.011.

With GAHATVPSMVTL as the sequence, how does the protein stability index read?
The protein stability index was 0.698 ± 0.092.

Which protein stability index does the source give for RPLALHSYPCSP here?
The protein stability index was 0.6771 ± 0.00072.

With RVHRSVVGYRRC as the sequence, how does the protein stability index read?
The protein stability index was 0.611 ± 0.025.

For GGFLATAGLSVT, which protein stability index is on record?
The protein stability index was 0.673 ± 0.056.

How did the protein stability index turn out when PPPLPPSPLLPP was run?
Its protein stability index is 0.701 ± 0.019.

How did the protein stability index turn out when QPGGTHDLGGTG was run?
Its protein stability index is 0.61 ± 0.012.

How did the protein stability index turn out when AEQLALSQLSYV was run?
The protein stability index was 0.687 ± 0.0099.

For KLTKGKIQLHIK, which protein stability index is on record?
The protein stability index was 0.593 ± 0.017.

How did the protein stability index turn out when AERKDKNRKKKR was run?
The protein stability index was 0.705 ± 0.023.

How did the protein stability index turn out when RLPSAPPRQPTH was run?
Its protein stability index is 0.667 ± 0.061.

How did the protein stability index turn out when LFFSIVSPPCGR was run?
Its protein stability index is 0.748 ± 0.068.

For IIRKQQAKKVEL, which protein stability index is on record?
Its protein stability index is 0.681 ± 0.025.

For LLFPCSVGLGVV, which protein stability index is on record?
Its protein stability index is 0.686 ± 0.077.

For AQELPGGAGGDG, which protein stability index is on record?
Its protein stability index is 0.659 ± 0.031.

Which protein stability index does the source give for PTSFAPSPPLPR here?
The protein stability index was 0.741 ± 0.025.

For LEITKKKIGLKY, which protein stability index is on record?
Its protein stability index is 0.716 ± 0.13.

With GKRYLIKKRKKT as the sequence, how does the protein stability index read?
The protein stability index was 0.698 ± 0.021.

With CCLLYPAVYTTQ as the sequence, how does the protein stability index read?
Its protein stability index is 0.62 ± 0.046.

How did the protein stability index turn out when LSGPLILHLTSL was run?
The protein stability index was 0.693 ± 0.057.

With SARECSVRTPHN as the sequence, how does the protein stability index read?
The protein stability index was 0.711 ± 0.061.

With PPPRPPRPPLPS as the sequence, how does the protein stability index read?
Its protein stability index is 0.727 ± 0.02.

For RRLFVMDKRKRK, which protein stability index is on record?
Its protein stability index is 0.716 ± 0.033.

PLPPLAPPHRSP was tested. Which protein stability index did it give?
Its protein stability index is 0.682 ± 0.091.

For MGVGCFCCLFVG, which protein stability index is on record?
Its protein stability index is 0.541 ± 0.011.

For GWCVGHSVLVVE, which protein stability index is on record?
Its protein stability index is 0.618 ± 0.021.

For SSLSLDERKPRT, which protein stability index is on record?
Its protein stability index is 0.712 ± 0.23.

With GRAGLDLACWWK as the sequence, how does the protein stability index read?
The protein stability index was 0.709 ± 0.03.

For LDVQPVHPVDPE, which protein stability index is on record?
Its protein stability index is 0.778 ± 0.013.

GRKKRGRKGEEK was tested. Which protein stability index did it give?
The protein stability index was 0.631 ± 0.035.

With FVLRCLGLVLPV as the sequence, how does the protein stability index read?
Its protein stability index is 0.593 ± 0.077.

TVMRPSVGHVDG was tested. Which protein stability index did it give?
The protein stability index was 0.68 ± 0.038.

LSLSNILDYFYC was tested. Which protein stability index did it give?
Its protein stability index is 0.685 ± 0.044.

Which protein stability index does the source give for DFLSLPPISPLL here?
The protein stability index was 0.787 ± 0.15.
